The numbers were not newly measured in publication PMC3437440, which cites them from elsewhere.

By Kd is commonly meant the concentration at which binding is half-saturated.

The target of this data set is IgG1 Fc Fc (Homo sapiens) [IgG part: P01857].

FcγRIIIa (Val158 variant), sequence (P08637 17-254, change not shown): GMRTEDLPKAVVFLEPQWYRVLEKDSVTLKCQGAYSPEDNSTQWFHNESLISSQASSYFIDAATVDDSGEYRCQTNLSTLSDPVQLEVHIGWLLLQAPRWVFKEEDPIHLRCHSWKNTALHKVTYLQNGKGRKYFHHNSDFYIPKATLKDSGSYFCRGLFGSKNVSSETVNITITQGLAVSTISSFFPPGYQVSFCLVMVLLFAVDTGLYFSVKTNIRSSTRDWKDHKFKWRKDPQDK

For the substance “FcγRIIIa (Val158 variant) (from UniProt P08637)”, the Kd was 100 nM.
